Patent US10174359 (JAPANESE FOUNDATION FOR CANCER RESEARCH, dated 2019)

Target: T1, myc-tagged mouse separase, wild-type (WT) (mouse, UniProt P60330 1-2118)
T1 construct: Studied in HeLa cell extracts by co-immunoprecipitation and immunoblot; also called wild-type separase; wild-type mouse separase; not shown: myc tag
Test: immunoprecipitation with securin from anaphase cell extract, immunoblot for separase-myc (FIG. 7A)
Description: Typically, the cell extracts are mixed with […] of agarose beads conjugated to anti-myc tag (manufactured by MBL), or protein A beads (manufactured by Bio-RAD) coupled to the desired antibodies, and incubated for 2 hr at 4° C., then washed three times with IP buffer and three times with TBS-T (150 mM sodium chloride, 20 mM Tris pH 8.0, 0.05% (v/v) Tween 20) and then subjected to analysis.
In the wild-type mouse separase replaced cell and SA mutant mouse separase replaced cell, the cell cycle arrest by Monastrol, was cancelled. Forty minutes after cancellation of the cell cycle arrest by Monastrol a cell population enriched in anaphase cells was prepared. Then, a cell extract was obtained and subjected to immunoprecipitation with cyclin B1 and securin to analyze the presence or absence of separase-myc. As a result, separase having a small molecular weight, i.e., cleaved separase, is observed.

T1 sequence (P60330 whole entry): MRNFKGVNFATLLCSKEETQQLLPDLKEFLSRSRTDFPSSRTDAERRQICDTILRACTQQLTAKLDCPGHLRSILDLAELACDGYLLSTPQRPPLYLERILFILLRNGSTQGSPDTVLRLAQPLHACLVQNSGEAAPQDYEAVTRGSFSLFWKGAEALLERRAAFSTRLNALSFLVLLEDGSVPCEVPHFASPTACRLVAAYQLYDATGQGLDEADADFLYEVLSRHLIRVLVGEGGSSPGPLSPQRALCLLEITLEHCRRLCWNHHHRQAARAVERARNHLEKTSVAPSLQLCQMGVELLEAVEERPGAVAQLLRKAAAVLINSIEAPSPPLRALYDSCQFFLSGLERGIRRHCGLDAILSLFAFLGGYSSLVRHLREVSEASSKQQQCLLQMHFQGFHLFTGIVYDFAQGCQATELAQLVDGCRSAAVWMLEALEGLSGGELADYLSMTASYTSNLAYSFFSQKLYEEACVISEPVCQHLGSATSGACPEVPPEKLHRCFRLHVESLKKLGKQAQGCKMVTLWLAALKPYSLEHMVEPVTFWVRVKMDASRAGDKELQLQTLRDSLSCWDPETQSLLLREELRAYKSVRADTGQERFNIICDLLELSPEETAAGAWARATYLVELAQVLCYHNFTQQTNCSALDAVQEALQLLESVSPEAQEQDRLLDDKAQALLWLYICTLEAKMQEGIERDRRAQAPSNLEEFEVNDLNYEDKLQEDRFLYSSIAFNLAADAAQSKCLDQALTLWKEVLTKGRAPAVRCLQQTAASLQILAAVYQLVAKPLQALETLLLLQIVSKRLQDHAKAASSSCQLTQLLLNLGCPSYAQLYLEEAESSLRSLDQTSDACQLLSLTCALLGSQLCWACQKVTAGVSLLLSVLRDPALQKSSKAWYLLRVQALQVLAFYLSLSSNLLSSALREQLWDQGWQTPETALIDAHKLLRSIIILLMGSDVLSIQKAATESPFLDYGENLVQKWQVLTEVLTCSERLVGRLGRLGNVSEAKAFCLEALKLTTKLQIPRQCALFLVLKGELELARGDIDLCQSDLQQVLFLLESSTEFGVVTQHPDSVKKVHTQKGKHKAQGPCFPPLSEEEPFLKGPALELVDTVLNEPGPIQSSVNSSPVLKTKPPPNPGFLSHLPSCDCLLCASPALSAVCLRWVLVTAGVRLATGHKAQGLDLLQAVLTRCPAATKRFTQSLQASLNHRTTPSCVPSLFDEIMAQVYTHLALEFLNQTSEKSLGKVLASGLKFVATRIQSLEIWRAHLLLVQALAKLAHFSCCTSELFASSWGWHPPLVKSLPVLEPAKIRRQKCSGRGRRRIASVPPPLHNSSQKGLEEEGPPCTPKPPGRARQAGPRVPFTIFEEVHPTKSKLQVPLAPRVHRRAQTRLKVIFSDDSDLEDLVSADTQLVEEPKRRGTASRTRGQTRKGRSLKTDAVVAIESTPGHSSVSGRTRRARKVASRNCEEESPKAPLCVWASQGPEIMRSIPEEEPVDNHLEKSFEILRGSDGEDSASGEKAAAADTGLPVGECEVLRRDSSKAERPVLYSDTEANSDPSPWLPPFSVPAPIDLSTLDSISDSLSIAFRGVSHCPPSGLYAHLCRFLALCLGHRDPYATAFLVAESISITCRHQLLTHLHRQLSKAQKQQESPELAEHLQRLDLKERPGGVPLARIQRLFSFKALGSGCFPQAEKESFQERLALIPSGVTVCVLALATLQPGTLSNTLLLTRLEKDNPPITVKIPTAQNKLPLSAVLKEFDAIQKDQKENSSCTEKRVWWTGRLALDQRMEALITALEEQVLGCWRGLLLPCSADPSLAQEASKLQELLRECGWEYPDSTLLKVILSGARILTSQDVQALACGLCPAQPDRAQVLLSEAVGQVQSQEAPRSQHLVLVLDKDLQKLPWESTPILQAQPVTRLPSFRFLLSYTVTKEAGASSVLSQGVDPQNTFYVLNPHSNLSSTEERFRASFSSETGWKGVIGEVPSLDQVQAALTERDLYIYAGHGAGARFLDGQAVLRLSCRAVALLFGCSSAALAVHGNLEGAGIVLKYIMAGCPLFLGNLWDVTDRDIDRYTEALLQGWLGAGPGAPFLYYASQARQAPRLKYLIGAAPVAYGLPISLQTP

B1: securin (other, UniProt O95997 2-202, looked up)
chain: ATLIYVDKENGEPGTRVVAKDGLKLGSGPSIKALDGRSQVSTPRFGKTFDAPPALPKATRKALGTVNRATEKSVKTKGPLKQKQPSFSAKKMTEKTVKAKSSVPASDDAYPEIEKFFPFNPLDFESFDLPEEHQIAHLPLSGVPLMILDEERELEKLFQLGPPSPVKMPSPPWESNLLQSPSSILSTLDVELPPVCCDIDI
notes: Endogenous protein in HeLa cell extracts
B1: binds.
